Assay results: patent US20230181750A1 (CRISPR THERAPEUTICS, published 2023)

B1: mask peptide P1 (peptide)
peptide: EVAPGKRWFYNHVKQVPHLV
notes: Selected by phage display (Screen 1, X15/X19 library)
B2: mask peptide P2 (peptide)
peptide: HEEVHMRPNKLSLTWAYTGPQLR
notes: as for B1
B3: mask peptide M3 (peptide)
peptide: CTMPPSPRSKVIC
notes: Selected by phage display (Screen 2, XnCXnCXn library)

target: T1, anti-PTK7 antibody Ab181; assay: phage display selection against Ab181, X15/X19 library
T1 construct: also called unmasked antibody

| Binder | binding result |
| --- | --- |
| B1 | binds |
| B2 | binds |

target: T1, anti-PTK7 antibody Ab181; assay: phage display selection against Ab181, XnCXnCXn library

| Binder | binding result |
| --- | --- |
| B3 | binds |
| CYIGLRMVPCFHM (Selected by phage display (Screen 2)) [mask peptide M10] | binds |
| CHIGKRPVPCLWI (Selected by phage display (Screen 2)) [mask peptide M9] | binds |
| CTHVAQWAIKAFC (Selected by phage display (Screen 2)) [mask peptide M14] | binds |
| WCTIPSSMSIRLC (Selected by phage display (Screen 2)) [mask peptide M8] | binds |
| CTMPSHAVASFLC (Selected by phage display (Screen 2)) [mask peptide M11] | binds |
| CTMPYHIHSIGLC (Selected by phage display (Screen 2)) [mask peptide M7] | binds |
| CTYPSWVAYIRFC (Selected by phage display (Screen 2)) [mask peptide M5] | binds |
| CTMPVHTYSQWLC (Selected by phage display (Screen 2)) [mask peptide M12] | binds |
| CTFPNTTMQRTFC (Selected by phage display (Screen 2)) [mask peptide M4] | binds |
| CTYPPRFHMHWLC (Selected by phage display (Screen 2)) [mask peptide M13] | binds |
| VCTYPPAHRTRFC (Selected by phage display (Screen 2)) [mask peptide M6] | binds |
